# Results reported in publication PMC12723238, “Structural basis for T-cell intracellular antigen-1 amyloid fibril formation revealed by cryo-electron microscopy” (PNAS Nexus, 2025).
# How the values were obtained:
# [1] = biological target: the molecule itself; test: thioflavin T fluorescence + negative-stain TEM; fibril formation of recombinant full-length TIA-1 from phase-separated condensates, with single-stranded DNA TC5, physiological buffer, 30 °C, up to 3 days
# [2] = biological target: the molecule itself; test: thioflavin T fluorescence + negative-stain TEM; fibril formation of the synthetic TFC peptide alone, 100 to 12.5 μM
# [3] = biological target: the molecule itself; test: cryo-EM structure; twisted amyloid fibrils of TIA-1 sPLD; fibrils grown by adding sonicated seeds to a monomer solution in 0.1% trifluoroacetic acid; helical reconstruction, two protofilaments
# [4] = biological target: the molecule itself; test: thioflavin T fluorescence + negative-stain TEM; fibril formation of TIA-1 sPLD from phase-separated condensates, without TC5, physiological buffer, 30 °C, 3 days
Protein,binding result [4],further results
"full-length human TIA-1 WT (natural protein, UniProt P31483 1-386, looked up, T-cell intracellular antigen-1 (TIA-1), human, full length, 386 residues (three RRMs followed by the PLD); also called full-length TIA-1; FL; source: recombinant) MEDEMPKTLYVGNLSRDVTEALILQLFSQIGPCKNCKMIMDTAGNDPYCFVEFHEHRHAAAALAAMNGRKIMGKEVKVNWATTPSSQKKDTSSSTVVSTQRSQDHFHVFVGDLSPEITTEDIKAAFAPFGRISDARVVKDMATGKSKGYGFVSFFNKWDAENAIQQMGGQWLGGRQIRTNWATRKPPAPKSTYESNTKQLSYDEVVNQSSPSNCTVYCGGVTSGLTEQLMRQTFSPFGQIMEIRVFPDKGYSFVRFNSHESAAHAIVSVNGTTIEGHVVKCYWGKETLDMINPVQQQNQIGYPQPYGQWGQWYGNAQQIGQYMPNGWQVPAYGMYGQAWNQQGFNQTQSSAPWMGPNYGVQPPQGQNGSMLPNQPSGYRVAGYETQ",,binding result [1]: binds
"full-length human TIA-1 A381T (natural protein, UniProt P31483 1-386, looked up, TIA-1, human, full length, 386 residues, with the disease-associated missense mutation A381T; source: recombinant) MEDEMPKTLYVGNLSRDVTEALILQLFSQIGPCKNCKMIMDTAGNDPYCFVEFHEHRHAAAALAAMNGRKIMGKEVKVNWATTPSSQKKDTSSSTVVSTQRSQDHFHVFVGDLSPEITTEDIKAAFAPFGRISDARVVKDMATGKSKGYGFVSFFNKWDAENAIQQMGGQWLGGRQIRTNWATRKPPAPKSTYESNTKQLSYDEVVNQSSPSNCTVYCGGVTSGLTEQLMRQTFSPFGQIMEIRVFPDKGYSFVRFNSHESAAHAIVSVNGTTIEGHVVKCYWGKETLDMINPVQQQNQIGYPQPYGQWGQWYGNAQQIGQYMPNGWQVPAYGMYGQAWNQQGFNQTQSSAPWMGPNYGVQPPQGQNGSMLPNQPSGYRVTGYETQ",,binding result [1]: binds
"full-length human TIA-1 E384K (natural protein, UniProt P31483 1-386, looked up, TIA-1, human, full length, 386 residues, with the disease-associated missense mutation E384K; source: recombinant) MEDEMPKTLYVGNLSRDVTEALILQLFSQIGPCKNCKMIMDTAGNDPYCFVEFHEHRHAAAALAAMNGRKIMGKEVKVNWATTPSSQKKDTSSSTVVSTQRSQDHFHVFVGDLSPEITTEDIKAAFAPFGRISDARVVKDMATGKSKGYGFVSFFNKWDAENAIQQMGGQWLGGRQIRTNWATRKPPAPKSTYESNTKQLSYDEVVNQSSPSNCTVYCGGVTSGLTEQLMRQTFSPFGQIMEIRVFPDKGYSFVRFNSHESAAHAIVSVNGTTIEGHVVKCYWGKETLDMINPVQQQNQIGYPQPYGQWGQWYGNAQQIGQYMPNGWQVPAYGMYGQAWNQQGFNQTQSSAPWMGPNYGVQPPQGQNGSMLPNQPSGYRVAGYKTQ",,binding result [1]: binds
"full-length human TIA-1 P362L (natural protein, UniProt P31483 1-386, looked up, TIA-1, human, full length, 386 residues, with the disease-associated missense mutation P362L; source: recombinant) MEDEMPKTLYVGNLSRDVTEALILQLFSQIGPCKNCKMIMDTAGNDPYCFVEFHEHRHAAAALAAMNGRKIMGKEVKVNWATTPSSQKKDTSSSTVVSTQRSQDHFHVFVGDLSPEITTEDIKAAFAPFGRISDARVVKDMATGKSKGYGFVSFFNKWDAENAIQQMGGQWLGGRQIRTNWATRKPPAPKSTYESNTKQLSYDEVVNQSSPSNCTVYCGGVTSGLTEQLMRQTFSPFGQIMEIRVFPDKGYSFVRFNSHESAAHAIVSVNGTTIEGHVVKCYWGKETLDMINPVQQQNQIGYPQPYGQWGQWYGNAQQIGQYMPNGWQVPAYGMYGQAWNQQGFNQTQSSAPWMGPNYGVQLPQGQNGSMLPNQPSGYRVAGYETQ",,binding result [1]: binds
"full-length human TIA-1 G355R (natural protein, UniProt P31483 1-386, looked up, TIA-1, human, full length, 386 residues, with the missense mutation G355R (found in genetic research on ALS/FTD); source: recombinant) MEDEMPKTLYVGNLSRDVTEALILQLFSQIGPCKNCKMIMDTAGNDPYCFVEFHEHRHAAAALAAMNGRKIMGKEVKVNWATTPSSQKKDTSSSTVVSTQRSQDHFHVFVGDLSPEITTEDIKAAFAPFGRISDARVVKDMATGKSKGYGFVSFFNKWDAENAIQQMGGQWLGGRQIRTNWATRKPPAPKSTYESNTKQLSYDEVVNQSSPSNCTVYCGGVTSGLTEQLMRQTFSPFGQIMEIRVFPDKGYSFVRFNSHESAAHAIVSVNGTTIEGHVVKCYWGKETLDMINPVQQQNQIGYPQPYGQWGQWYGNAQQIGQYMPNGWQVPAYGMYGQAWNQQGFNQTQSSAPWMRPNYGVQPPQGQNGSMLPNQPSGYRVAGYETQ",,binding result [1]: binds
"GQAWNQQGFNQTQSSAPWMGPNYGV (peptide, UniProt P31483 336-360, looked up, TIA-1, human, fibril core region, residues 336-360 (25 residues); also called TFC peptide fibrils; TFC fibrils; source: synthetic peptide) [synthesized peptide of the 25-residue TIA-1 fibril core (TFC peptide), residues 336-360]",,binding result [2]: binds
"human wild-type TIA-1 short prion-like domain (sPLD), residues 320-386 (domain or fragment, UniProt P31483 320-386, looked up, T-cell intracellular antigen-1 (TIA-1), human, 386 residues; short PLD, residues 320-386; Only residues 336-360 are resolved in the fibril structure; also called WT TIA-1 sPLD; TIA-1 sPLD) GQYMPNGWQVPAYGMYGQAWNQQGFNQTQSSAPWMGPNYGVQPPQGQNGSMLPNQPSGYRVAGYETQ",,binding result [3]: binds
"human TIA-1 sPLD (residues 320-386) W339A (domain or fragment, UniProt P31483 320-386, looked up, TIA-1, human, short PLD, residues 320-386, with W339A) GQYMPNGWQVPAYGMYGQAANQQGFNQTQSSAPWMGPNYGVQPPQGQNGSMLPNQPSGYRVAGYETQ",binds,
"human TIA-1 sPLD (residues 320-386) W353A (domain or fragment, UniProt P31483 320-386, looked up, TIA-1, human, short PLD, residues 320-386, with W353A) GQYMPNGWQVPAYGMYGQAWNQQGFNQTQSSAPAMGPNYGVQPPQGQNGSMLPNQPSGYRVAGYETQ",binds,
"human TIA-1 sPLD (residues 320-386) Q346L (domain or fragment, UniProt P31483 320-386, looked up, TIA-1, human, short PLD, residues 320-386, with Q346L) GQYMPNGWQVPAYGMYGQAWNQQGFNLTQSSAPWMGPNYGVQPPQGQNGSMLPNQPSGYRVAGYETQ",binds,
"human TIA-1 sPLD (residues 320-386) A381T (domain or fragment, UniProt P31483 320-386, looked up, TIA-1, human, short PLD, residues 320-386, with the disease-associated missense mutation A381T) GQYMPNGWQVPAYGMYGQAWNQQGFNQTQSSAPWMGPNYGVQPPQGQNGSMLPNQPSGYRVTGYETQ",binds,
"human TIA-1 sPLD (residues 320-386) G343P (domain or fragment, UniProt P31483 320-386, looked up, TIA-1, human, short PLD, residues 320-386, with G343P) GQYMPNGWQVPAYGMYGQAWNQQPFNQTQSSAPWMGPNYGVQPPQGQNGSMLPNQPSGYRVAGYETQ",binds,
"human TIA-1 sPLD (residues 320-386) E384K (domain or fragment, UniProt P31483 320-386, looked up, TIA-1, human, short PLD, residues 320-386, with the disease-associated missense mutation E384K) GQYMPNGWQVPAYGMYGQAWNQQGFNQTQSSAPWMGPNYGVQPPQGQNGSMLPNQPSGYRVAGYKTQ",binds,
"human TIA-1 sPLD (residues 320-386) P362L (domain or fragment, UniProt P31483 320-386, looked up, TIA-1, human, short PLD, residues 320-386, with the disease-associated missense mutation P362L) GQYMPNGWQVPAYGMYGQAWNQQGFNQTQSSAPWMGPNYGVQLPQGQNGSMLPNQPSGYRVAGYETQ",binds,
"human TIA-1 sPLD (residues 320-386) with the G355R missense mutation (domain or fragment, UniProt P31483 320-386, looked up, TIA-1, human, short PLD, residues 320-386, with G355R (found in genetic research on ALS/FTD); Only residues 334-349 are resolved in the fibril structure; also called G355R TIA-1 sPLD; TIA-1 G355R fibrils) GQYMPNGWQVPAYGMYGQAWNQQGFNQTQSSAPWMRPNYGVQPPQGQNGSMLPNQPSGYRVAGYETQ",,binding result [3]: binds
"human TIA-1 sPLD (residues 320-386) M354A (domain or fragment, UniProt P31483 320-386, looked up, TIA-1, human, short PLD, residues 320-386, with M354A) GQYMPNGWQVPAYGMYGQAWNQQGFNQTQSSAPWAGPNYGVQPPQGQNGSMLPNQPSGYRVAGYETQ",binds,
"human TIA-1 sPLD (residues 320-386) Q348L (domain or fragment, UniProt P31483 320-386, looked up, TIA-1, human, short PLD, residues 320-386, with Q348L) GQYMPNGWQVPAYGMYGQAWNQQGFNQTLSSAPWMGPNYGVQPPQGQNGSMLPNQPSGYRVAGYETQ",binds,
